The results in this text go back to patent US20110191904A1.

Assay in all cases: cell-based or functional assay
The target of experiment [1] is T1, Arabidopsis FAD2 (At3g12120) (Arabidopsis thaliana) (UniProt P46313).
T1 sequence (looked up): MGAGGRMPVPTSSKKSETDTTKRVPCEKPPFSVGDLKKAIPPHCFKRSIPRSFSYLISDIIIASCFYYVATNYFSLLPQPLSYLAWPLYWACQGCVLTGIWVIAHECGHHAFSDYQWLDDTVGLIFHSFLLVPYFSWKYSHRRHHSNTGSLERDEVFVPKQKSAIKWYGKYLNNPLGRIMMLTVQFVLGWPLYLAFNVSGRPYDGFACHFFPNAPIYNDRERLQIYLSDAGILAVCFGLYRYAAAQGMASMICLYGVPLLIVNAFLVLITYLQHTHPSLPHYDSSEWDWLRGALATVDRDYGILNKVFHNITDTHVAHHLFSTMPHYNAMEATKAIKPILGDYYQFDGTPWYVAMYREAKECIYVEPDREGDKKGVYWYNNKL

Experiment [2] concerns the target T2, Arabidopsis FAD3 (At2g29980) (Arabidopsis thaliana) (UniProt P48623).
T2 sequence (looked up): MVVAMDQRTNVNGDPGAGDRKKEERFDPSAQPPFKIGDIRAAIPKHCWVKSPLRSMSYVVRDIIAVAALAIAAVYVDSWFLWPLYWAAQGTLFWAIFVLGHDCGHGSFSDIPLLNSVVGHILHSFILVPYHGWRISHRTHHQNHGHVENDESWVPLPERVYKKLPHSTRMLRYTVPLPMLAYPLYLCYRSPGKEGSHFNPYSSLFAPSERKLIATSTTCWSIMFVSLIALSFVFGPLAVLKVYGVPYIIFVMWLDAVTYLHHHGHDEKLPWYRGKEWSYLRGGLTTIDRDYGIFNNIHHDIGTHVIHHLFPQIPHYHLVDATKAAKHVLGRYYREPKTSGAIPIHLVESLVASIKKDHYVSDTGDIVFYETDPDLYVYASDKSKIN

Experiment [3] has as its target T1, Arabidopsis FAD2 (At3g12120) (Arabidopsis thaliana). The source holds these as a separate data set.
The target of experiment [4] is T2, Arabidopsis FAD3 (At2g29980) (Arabidopsis thaliana). This is another data set of the same source.

Like-named read-outs stand apart in the source and are kept apart here.

In experiment [1], “Arabidopsis cytochrome b5 Cb5-B (At5g48810) (from UniProt Q9ZWT2 1-140)” yielded a 16:2 content of cb5 mutant yeast co-expressing both, 15 C (GC-FID) (mol percentage of total fatty acids) of 1.3; a 16:2 content of cb5 mutant yeast co-expressing both, 28 C (GC-FID) (mol percentage of total fatty acids) of 1.2; a 18:2 content of cb5 mutant yeast co-expressing both, 15 C (GC-FID) (mol percentage of total fatty acids) of 7.4; a 18:2 content of cb5 mutant yeast co-expressing both, 28 C (GC-FID) (mol percentage of total fatty acids) of 6. In experiment [2], the 18:3 content of cb5 mutant yeast co-expressing both, 15 C, 18:2 fed (GC-FID) (mol percentage of total fatty acids) was found to be 11.8 and the 18:3 content of cb5 mutant yeast co-expressing both, 28 C, 18:2 fed (GC-FID) (mol percentage of total fatty acids) stood at 8.2.

B1: Arabidopsis cytochrome b5 Cb5-C (At2g46650) (protein, Arabidopsis thaliana, UniProt Q9ZNV4 1-132, looked up)
chain: MANLISFHDVAKHKCKNDCWILIHGKVYDISTFMDEHPGGDNVLLAVTGKDASIDFEDVNHSKDAKELMKKYCIGDVDQSTVPVTQQYIPPWEKESTAAETTKEESGKKLLIYLIPLLILGVAFALRFYNNK
Take B1: in experiment [3], the 16:2 content of cb5 mutant yeast co-expressing both, 15 C (GC-FID) (mol percentage of total fatty acids) came out at 1.2; the 16:2 content of cb5 mutant yeast co-expressing both, 28 C (GC-FID) (mol percentage of total fatty acids) turned out to be 0.9; the 18:2 content of cb5 mutant yeast co-expressing both, 15 C (GC-FID) (mol percentage of total fatty acids) is 7.2; the 18:2 content of cb5 mutant yeast co-expressing both, 28 C (GC-FID) (mol percentage of total fatty acids) is 6.4.

B2: soybean (Glycine max) cytochrome b5 GmCb5-C2 (protein)
chain: MGSKTKTFTFEEVAKHNHRKDCWIIVKGKVYDVTPFLDDHPGGDEVLVTATEKDATTDFEDIGHSDSATQMMEKYFVGEVDTNTLPAQVTSNNSVRQPTQAPPAYNNQSSGFVVKMLQYIVPLLILAFAFGLQYYGKKNKSTESEN
In experiment [4], B2 yielded a 18:3 content of cb5 mutant yeast co-expressing both, 15 C, 18:2 fed (GC-FID) (mol percentage of total fatty acids) of 3.8 and a 18:3 content of cb5 mutant yeast co-expressing both, 28 C, 18:2 fed (GC-FID) (mol percentage of total fatty acids) of 3.9.

B3: soybean (Glycine max) cytochrome b5 GmCb5-C3 (protein)
chain: MASNPKTLTFEEVAKHNNKKDCWIIINGKVYDITPFLDEHPGGDEVLLTSTGKDATIDFEDVGHSDSAIEMMEKYFIGKVDTSTLPPKVSHSLPQPTQTHGAGNQSSGFVVKILQFLLPLLILGLAFALQYYGQKKHASTS
For the molecule B3, in experiment [4], the 18:3 content of cb5 mutant yeast co-expressing both, 15 C, 18:2 fed (GC-FID) (mol percentage of total fatty acids) stood at 2 and the 18:3 content of cb5 mutant yeast co-expressing both, 28 C, 18:2 fed (GC-FID) (mol percentage of total fatty acids) came out at 2.6.

B4: Arabidopsis cytochrome b5 Cb5-E (At2g32720) (protein, Arabidopsis thaliana, UniProt O48845 1-134, looked up)
chain: MGDEAKIFTLSEVSEHNQAHDCWIVINGKVYNVTKFLEDHPGGDDVLLSSTGKDATDDFEDVGHSESAREMMEQYYVGEIDPTTIPKKVKYTPPKQPHYNQDKTSEFIIKLLQFLVPLAILGLAVGIRIYTKSG
As for B4, in experiment [4], the 18:3 content of cb5 mutant yeast co-expressing both, 15 C, 18:2 fed (GC-FID) (mol percentage of total fatty acids) is 12.6 and the 18:3 content of cb5 mutant yeast co-expressing both, 28 C, 18:2 fed (GC-FID) (mol percentage of total fatty acids) came out at 8.2.
